{
  "source": "patent US20220306715A1",
  "about": "(SHATTUCK LABS, published 2022)",
  "binders": {"B1": {"name": "human IL-6R-Fc-IL-35 chimeric protein (Fc fusion)", "chain 1": "ELLDPCGYISPESPVVQLHSNFTAVCVLKEKCMDYFHVNANYIVWKTNHFTIPKEQYTIINRTASSVTFTDIASLNIQLTCNILTFGQLEQNVYGITIISGLPPEKPKNLSCIVNEGKKMRCEWDGGRETHLETNFTLKSEWATHKFADCKAKRDTPTSCTVDYSTVYFVNIEVWVEAENALGKVTSDHINFDPVYKVKPNPPHNLSVINSEELSSILKLTWTNPSIKSVIILKYNIQYRTKDASTWSQIPPEDTASTRSSFTVQDLKPFTEYVFRIRCMKEDGKGYWSDWSEEASGITYEDRPSKAPSFWYKIDPSHTQGYRTVQLVWKTLPPFEANGKILDYEVTLTRWKSHLQNYTVNATKLTVNLTNDRYLATLTVRNLVGKSDAAVLTIPACDFQATHPVMDLKAFPKDNMLWVEWTTPRESVKKYILEWCVLSDKAPCITDWQQEDGTVHRTYLRGNLAESKCYLITVTPVYADGPGSPESIKAYLKQAPPSKGPTVRTKKVGKNEAVLEWDQLPVDVQNGFIRNYTIFYRTIIGNETAVNVDSSHTEYTLSSLTSDTLYMVRMAAYTDEGGKDGPEFTFTTPKFAQGEIEGSGSRKGGKRGSKYGPPCPPCPAPEFLGGPSVFLFPPKPKDQLMISRTPEVTCVVVDVSQEDPEVQFNWYVDGVEVHNAKTKPREEQFNSTYRVVSVLTVLHQDWLSGKEYKCKVSSKGLPSSIEKTISNATGQPREPQVYTLPPSQEEMTKNQVSLTCLVKGFYPSDIAVEWESNGQPENNYKTTPPVLDSDGSFFLYSRLTVDKSRWQEGNVFSCSVLHEALHNHYTQKSLSLSLGKDEGGEDGSGSRNLPVATPDPGMFPCLHHSQNLLRAVSNMLQKARQTLEFYPCTSEEIDHEDITKDKTSTVEACLPLELTKNESCLNSRETSFITNGSCLASRKTSFMMALCLSSIYEDLKMYQVEFKTMNAKLLMDPKRQIFLDQNMLAVIDELMQALNFNSETVPQKSSLEEPDFYKTKIKLCILLHAFRIRAVTIDRVMSYLNAS", "chain 2": "LAPRRCPAQEVARGVLTSLPGDSVTLTCPGVEPEDNATVHWVLRKPAAGSHPSRWAGMGRRLLLRSVQLHDSGNYSCYRAGRPAGTVHLLVDVPPEEPQLSCFRKSPLSNVVCEWGPRSTPSLTTKAVLLVRKFQNSPAEDFQEPCQYSQESQKFSCQLAVPEGDSSFYIVSMCVASSVGSKFSKTQTFQGCGILQPDPPANITVTAVARNPRWLSVTWQDPHSWNSSFYRLRFELRYRAERSKTFTTWMVKDLQHHCVIHDAWSGLRHVVQLRAQEEFGQGEWSEWSPEAMGTPWTESRSPPAENEVSTPMQALTTNKDDDNILFRDSANATSLPVQDSSSVPLPGSGSDEGGEDGSKYGPPCPPCPAPEFLGGPSVFLFPPKPKDQLMISRTPEVTCVVVDVSQEDPEVQFNWYVDGVEVHNAKTKPREEQFNSTYRVVSVLTVLHQDWLSGKEYKCKVSSKGLPSSIEKTISNATGQPREPQVYTLPPSQEEMTKNQVSLTCLVKGFYPSDIAVEWESNGQPENNYKTTPPVLDSDGSFFLYSRLTVDKSRWQEGNVFSCSVLHEALHNHYTQKSLSLSLGKRKGGKRGSGSRKGPPAALTLPRVQCRASRYPIAVDCSWTLPPAPNSTSPVSFIATYRLGMAARGHSWPCLQQTPTSTSCTITDVQLFSMAPYVLNVTAVHPWGSSSSFVPFITEHIIKPDPPEGVRLSPLAERQLQVQWEPPGSWPFPEIFSLKYWIRYKRQGAARFHRVGPIEATSFILRAVRPRARYYVQVAAQDLTDYGELSDWSLPATATMSLGK"}},
  "target": "IL-6",
  "sequence (P05231 30-212)": "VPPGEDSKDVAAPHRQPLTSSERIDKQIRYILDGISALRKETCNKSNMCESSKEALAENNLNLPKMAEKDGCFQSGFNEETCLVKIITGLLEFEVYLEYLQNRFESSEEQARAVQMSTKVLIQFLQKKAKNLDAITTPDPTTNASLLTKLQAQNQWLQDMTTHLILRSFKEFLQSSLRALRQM",
  "assay": "cell-based or functional assay",
  "data": [
    {"binder": "B1", "values": [
      {"measurement": "EC50 of induction of apoptosis in IL-6 dependent DS-1 cells cultured 24 hours with IL-6 (caspase 3/7 luciferase assay)", "value": 14.1, "unit": "nM"}
    ]}
  ]
}
